The data set concerns the molecule itself. Put plainly: cryo-EM structure.

B1: Escherichia coli mechanosensitive channel of small conductance MscS, wild type (natural protein, E. coli, UniProt P0C0S1 1-286, looked up)
chain: MEDLNVVDSINGAGSWLVANQALLLSYAVNIVAALAIIIVGLIIARMISNAVNRLMISRKIDATVADFLSALVRYGIIAFTLIAALGRVGVQTASVIAVLGAAGLAVGLALQGSLSNLAAGVLLVMFRPFRAGEYVDLGGVAGTVLSVQIFSTTMRTADGKIIVIPNGKIIAGNIINFSREPVRRNEFIIGVAYDSDIDQVKQILTNIIQSEDRILKDREMTVRLNELGASSINFVVRVWSNSGDLQNVYWDVLERIKREFDAAGISFPYPQMDVNFKRVKEDKAA
For the protein B1, the stoichiometry N (usually a count of units in the complex or per binding partner) was 7.

For the origin of these results see paper doi:10.1101/2024.01.22.576751 (bioRxiv, 2024).
